Experimental data taken from the Human Domainome abundance scans (Beltran et al. 2025).
± gives the uncertainty stated by the source.

B1: MEF2-activating motif and SAP domain-containing transcriptional regulator, residues 170 to 204; numbered along this chain, Q6ZN01 (parent)
chain: LKLEELTVSELRQQLRLRGLPVSGTKSMLLERMRG

Variants of: B1
Experiment: abundance fitness (aPCA) (normalised: wild type 0, dead -1); higher = more abundant; growth selection in yeast, the domain comes from the species named
Conditions: Homo sapiens

Abundance fitness: each site, then its substitutions
M28: N -0.402 ± 0.19, F -0.616 ± 0.23, G -0.512 ± 0.072, W -0.839 ± 0.29, V 0.05 ± 0.057, A 0.022 ± 0.095, T -0.081 ± 0.07, P -0.973 ± 0.38, H -0.003 ± 0.14, Q 0.067 ± 0.32, S -0.36 ± 0.096, L -0.106 ± 0.058, C -0.393 ± 0.25, I -0.015 ± 0.098
S23: Q -0.147 ± 0.11, N -0.02 ± 0.12, K -0.198 ± 0.075, A -0.103 ± 0.062, C -0.274 ± 0.16, L -0.349 ± 0.068, V -0.16 ± 0.092, R -0.384 ± 0.076, D 0.233 ± 0.14, M -0.222 ± 0.065, W -0.883 ± 0.37, E 0.025 ± 0.068, P -0.838 ± 0.096, G -0.007 ± 0.071, Y -0.106 ± 0.14
R16: W -0.129 ± 0.058, L -0.027 ± 0.067, G -0.081 ± 0.054, D -0.331 ± 0.09, Q -0.207 ± 0.18, S -0.095 ± 0.066, M -0.07 ± 0.062, K 0.284 ± 0.14, F -0.086 ± 0.26, P -0.96 ± 0.13, Y -0.613 ± 0.12, C -0.107 ± 0.08, A 0.04 ± 0.062, E 0.001 ± 0.078
S27: V -0.349 ± 0.084, W -0.23 ± 0.06, R -0.154 ± 0.064, G -0.108 ± 0.066, H -0.246 ± 0.091, Y -0.725 ± 0.35, P -0.19 ± 0.12, D 0.069 ± 0.065, T -0.108 ± 0.078, L -0.281 ± 0.063, C -0.455 ± 0.12, Q 0.38 ± 0.41, E 0.081 ± 0.05, F -1.15 ± 0.27, A -0.1 ± 0.064
R18: M 0.126 ± 0.071, S -0.206 ± 0.24, W -0.147 ± 0.085, G -0.523 ± 0.097, P -0.336 ± 0.39, E -0.14 ± 0.052, Q 0.03 ± 0.24, V -0.128 ± 0.095, A -0.009 ± 0.085, L 0.074 ± 0.057, T -0.239 ± 0.12, K -0.119 ± 0.068, N -0.299 ± 0.32
G24: V -0.828 ± 0.069, P -0.829 ± 0.095, W -0.41 ± 0.21, Q -0.935 ± 0.16, S -0.817 ± 0.13, K -1.25 ± 0.2, R -0.867 ± 0.1, L -1.01 ± 0.26, M -0.768 ± 0.13, E -0.335 ± 0.084
K26: W -0.361 ± 0.15, M -0.725 ± 0.33, A -0.057 ± 0.064, T -0.42 ± 0.097, L -0.159 ± 0.1, R 0.048 ± 0.069, S -0.697 ± 0.1, Q -0.221 ± 0.069, D -0.467 ± 0.32, E -0.379 ± 0.17, C -0.761 ± 0.15, G -0.78 ± 0.1
L20: Q -0.587 ± 0.27, K -0.555 ± 0.11, E -0.192 ± 0.055, M -0.005 ± 0.22, V -0.575 ± 0.071, I -0.646 ± 0.25, W -0.626 ± 0.089, R -0.914 ± 0.095, G -0.669 ± 0.067, Y -0.284 ± 0.11, F -0.329 ± 0.14, T -0.879 ± 0.13, A -0.296 ± 0.075, S -0.731 ± 0.35
T25: F -0.608 ± 0.34, Q -0.441 ± 0.15, C -0.43 ± 0.13, M -0.517 ± 0.2, H -0.295 ± 0.18, E -0.051 ± 0.06, L -0.581 ± 0.075, D 0.215 ± 0.096, R -0.497 ± 0.054, V -0.435 ± 0.073, K -0.204 ± 0.1, S 0.004 ± 0.069, P -0.29 ± 0.068, G -0.27 ± 0.059
R32: M -0.369 ± 0.23, N -0.02 ± 0.19, T 0 ± 0.1, I -0.507 ± 0.12, K -0.545 ± 0.16, Q -0.232 ± 0.1, L -0.485 ± 0.098, C -0.611 ± 0.13, G -0.326 ± 0.067, V -0.368 ± 0.12, W -0.554 ± 0.074, A -0.459 ± 0.11, S -0.483 ± 0.11, E -0.219 ± 0.1
L30: V -0.099 ± 0.07, T -0.257 ± 0.068, K -0.23 ± 0.11, I 0.394 ± 0.25, W -0.456 ± 0.17, M -0.179 ± 0.097, E -0.251 ± 0.091, D -0.376 ± 0.13, R -0.283 ± 0.07, A -0.356 ± 0.069, G -0.493 ± 0.09, C -0.197 ± 0.17, Y -0.915 ± 0.2, S -0.601 ± 0.081, Q 0.004 ± 0.084, P -0.507 ± 0.066
E31: P -0.992 ± 0.42, Q -0.227 ± 0.06, T -0.348 ± 0.096, M -0.343 ± 0.13, G -0.279 ± 0.061, S -0.27 ± 0.089, V -1.16 ± 0.23, C -0.745 ± 0.46, L -0.503 ± 0.072, Y -0.124 ± 0.18, N -0.238 ± 0.11, W -0.755 ± 0.18
M33: N -0.613 ± 0.34, R -0.66 ± 0.084, A -0.161 ± 0.08, C -0.235 ± 0.077, T -0.525 ± 0.099, W -0.538 ± 0.11, F -0.516 ± 0.091, G -0.343 ± 0.078, E -0.146 ± 0.091, S -0.34 ± 0.065, L 0.206 ± 0.1, Q 0.04 ± 0.25
L15: Y -0.661 ± 0.078, W -1 ± 0.16
G19: T -0.683 ± 0.11, V -1.02 ± 0.1, K -0.227 ± 0.086, Q -0.402 ± 0.1, F -0.639 ± 0.14, W -0.863 ± 0.092, P -0.558 ± 0.29, H -0.211 ± 0.16, E -0.261 ± 0.072, I -0.417 ± 0.19, R -0.337 ± 0.066, C -0.559 ± 0.092, S -0.34 ± 0.065, A -0.746 ± 0.08
V22: P -0.701 ± 0.2, Y 0.298 ± 0.11, E 0.025 ± 0.17, S -0.168 ± 0.078, T 0.152 ± 0.097, I -0.262 ± 0.24, D -0.046 ± 0.096, N -0.407 ± 0.17, C -0.255 ± 0.13, Q -0.108 ± 0.068, A 0.052 ± 0.1, L -0.209 ± 0.076, W -0.595 ± 0.12, R -0.375 ± 0.087
G35: S -0.262 ± 0.36, F -0.295 ± 0.11, W -0.416 ± 0.13, L -0.074 ± 0.081, A -0.117 ± 0.13, N -0.161 ± 0.28, R -0.436 ± 0.11
P21: K -0.494 ± 0.082, W -0.854 ± 0.066, H -0.727 ± 0.22, C -0.347 ± 0.096, M -0.655 ± 0.23, V -0.335 ± 0.086, D -0.094 ± 0.059, E -0.036 ± 0.068, F -1.08 ± 0.26, Y -0.909 ± 0.11, G -0.297 ± 0.048, A -0.184 ± 0.075, T -0.235 ± 0.096, N -0.303 ± 0.13, R -0.39 ± 0.048, Q -0.317 ± 0.058, S -0.129 ± 0.061
L29: R -0.616 ± 0.072, Q -0.486 ± 0.085, T -0.297 ± 0.08, V -0.842 ± 0.074, Y -0.469 ± 0.19, S -0.545 ± 0.061, P -0.909 ± 0.22, W -0.594 ± 0.11, M -0.338 ± 0.21, G -0.455 ± 0.053, F -0.589 ± 0.14, K -0.31 ± 0.17, D -0.51 ± 0.072, E -0.22 ± 0.14, N -0.683 ± 0.3, I -0.749 ± 0.19
L17: F -0.271 ± 0.15, E -0.089 ± 0.066, C -0.102 ± 0.16, T -0.081 ± 0.11, R -0.155 ± 0.056, G -0.238 ± 0.069, P -0.988 ± 0.15, S -0.249 ± 0.089, Q -0.032 ± 0.093, V -0.054 ± 0.14, M -0.087 ± 0.062, W -0.307 ± 0.089
R34: Y -0.316 ± 0.08, F -0.516 ± 0.099, T -0.045 ± 0.079, C -0.021 ± 0.21, L -0.068 ± 0.15, W -0.556 ± 0.071, E -0.089 ± 0.093, D -0.396 ± 0.2, N 0.21 ± 0.12, S -0.064 ± 0.089, M -0.416 ± 0.49, Q 0.156 ± 0.068, A -0.118 ± 0.068, V -0.244 ± 0.1, I -0.323 ± 0.29
